{"source": "the DeepSol protein solubility set", "data": [{"assay": "soluble on expression in E. coli; label from the status in PepcDB or PDB records", "values": [{"sequence": "MSLNTPQSAIIPDHAQAGIFIEADFAANRLNDIKAACRASLDALTALKARFPDDILGLTIAFGSKAWATFGHTDEGSEIKPFSEMGNGLAPSTQHDMSIHIQSFRQNAAYALAQSVLGAFGDSICVASEEHGLRLYQDRGLDGFVDGTENPQGDENVREVAIIPEGKPDAGGSYVLLQKYLHDLKKWDAVPVAEQEASVGRGKETDDEFGRDVRLPDSHLGRVNLKENGVGLKIVRRSLPFGKISGEHGLMFTAYCRTLHNIEAQLLSMFGDTDGKTDLLLRHLSAAVSGGYYYAPSVERLQNLEGGSHHHHHH", "soluble on expression in E. coli": "soluble"}, {"sequence": "MDITKADEPVIDEKDYPKPSDAELKAKLTPLQYSVTQNKHTERSFSNEYWDNFQPGIYVDITTGEPVFSSNDKFESGCGWPSFTKPIIKDVVHYETDNSFNMQRTEVLSRAGNAHLGHVFDDGPKDKGGLRYCINSASIKFIPLAEMEKAGYGYLIQSIKK", "soluble on expression in E. coli": "not soluble"}, {"sequence": "LQASVNLFPTISVAPSADTSSERSIYKARFLENVAAAETEKQVALAQGRAETLAGAMPNEAGGHPDARQLWDSPETAPAARTPQSPAPCVLLRAQRSLAPEPKEPLIPASPKAEPIWELPTRAPRLSIGDLDFSDLGEDEDQDMLNVESVEAGKDI", "soluble on expression in E. coli": "not soluble"}, {"sequence": "MDQGPINRPHFFFTTAPMPCPYLEGHLERKMVTDLTGPEAERLHESLSRAGFRRSHTIAYAPVCPGCTACVPVRIRARAFVKNKSFRRIVRANAGVTAEYVPARATVEQFHLFSQYQQARHGESDMALMGFFDYRSMVEDSPISTSIAEFREAGGELVAACLIDHLSDGLSAVYSFFNTTLPQSRGLGTWMILWMVDETVRRDLDHVYLGYWIAESSKMAYKERFQPLEVFGRRGWIAFDERGRPGLEHHHHHH", "soluble on expression in E. coli": "not soluble"}, {"sequence": "MSPTLSILIPVYKRDCRRLLEELYKQAEELSVGYEIILGDDCSGEPYTSQYIAYEQEGLCRLVSAEENMGAGRLRNRLAEEAQGEQLLILDSDTLPASPDFIERYLRHASGTTVVCGGFVYPPKSTNPLRQRYGAEVESRSAEERARKPHSGFISMAFMIPRKQMLATGFPPNMGMGYEDILFGERLRQAGIPILHIDNPVEHYHCDTAEGFLATTRSYLDNLYCHREELAELVSLLRAYNLLKRLHLMRMVAALWPLIRSSLEKQLTGAKPSLLLFSLYKLLYVASLSLVCAEKS", "soluble on expression in E. coli": "not soluble"}, {"sequence": "TDPDADRLGAAVRMPNGDYQVLTGNQLGSIMIHYILEAHQQAGTLPQNAAVLKSIVSSELATAIAEKCNTKMFNVLTGFKFIAEKIQQYEEDHSQTFMFGFEESYGYLVKPFVRDKDAIQALVLLAEVAAFYKKQGKTLYDGLQDIFEEFGYFEE", "soluble on expression in E. coli": "not soluble"}, {"sequence": "MNPKIEDSEFNWENEDIVMKLVDEKGKAHPVSKAELLESLESRKLGLETRVLDKYHENHVAFENVLVLDAPQDLETIVNLLLPWYMGKTLTLFEGPLNYPDSSRLAQIISKHNVDIVLGSDYNYSIPNPEYLKLFPVPSLKLVDLPNFESISNYLTISR", "soluble on expression in E. coli": "not soluble"}, {"sequence": "REGVFRAERQRKAGELIISREPLTGLDDAARSQALLALVRRKGLELLPWTPELRQWQARVALLRSLDIDKSATSEWPDLSDAQLLATLENWLMPYLGKVT", "soluble on expression in E. coli": "not soluble"}, {"sequence": "MGAAAAPEVNMELVGHFGGTTDAVDVAGNYAYVGQGQDFLILDITNPSSPVLVSKIMTEGFVRDIKVSRNYAYVADDDNGLVIVDISNPSSPTLKGSYNIPGYTYCITVSGNYAYVADNDGLVIVDISNPSDPILKGRYAGPTGDVAVYGNYAYVADWGNGLMIVDISNPSSPVLKGSYDTAGDIYGVSISGNYAYVADGDTGLVIVDISNPSSPTLKGNYNTAGIACDVSVLGNYAYVADNDNGLVIVDISDPSSPVLKGNGSTTGYAHGIEVSGNYAYVANSNTGLVIVDISNPSSPTLKGSCDTIVRAKSIAVSGNYAYIADWDNGLVIVDISNPSSPFLKGSCDTPRSAQGVAVSGNYAYVADDDGLVIVDISNPSFPILNKSYNTGGWAQGITVSGNYAYVIDMANGIFIVDISNPSSPILEGMYDTSPIIIENYDYTGSIWSVSVSGNYAYVADEGNGLLIVDISNPSSPILKGSYDTAGLAYDVAVSGNYAYVADSKNGLAIIDISNPSSPILVGNYNTSGYAECVSISGNYAYVAVDDSLVVVDISNPSSPILKGLYAGSAGDIAVSGNYVYASEGVNGLVILKANPESAFTVADFSSNITSGYAPLSIQFNDHSQNATSWNWDFGDGYNSTNQNPIHTYSSAGTYTVNLTVINENRTASKVAKIFVLNTSLEHHHHHH", "soluble on expression in E. coli": "not soluble"}, {"sequence": "MYTKILGTGSYLPVQVRSNADLEKMVDTSDEWIVTRTGIRERRIAGLDETVATMGFQAAEKALEMAGIDKDDIGLIIVATTSSSHAFPSSACQVQRMLGIKDAASFDLAAACAGFTYALSVADQYVKSGAVKHAIVIGSDVLSRALDPEDRGTIILFGDGAGAVVLGASEQPGIMSTHLHADGRYGELLALPYPDRQQDQPAYVTMAGNEVFKVAVTELAHIVDETLQANNLDRTALDWLVPHQANLRIISATAKKLGMGMDKVVITLDRHGNTSAASVPSAFDEAVRDGRIQRGQLVLLEAFGGGFTWGSALVRF", "soluble on expression in E. coli": "not soluble"}, {"sequence": "MVSVARELTVGINGFGRIGRLVLRACMEKGVKVVAVNDPFIDPEYMVYMFKYDSTHGRYKGSVEFRNGQLVVDNHEISVYQCKEPKQIPWRAVGSPYVVESTGVYLSIQAASDHISAGAQRVVISAPSPDAPMFVMGVNENDYNPGSMNIVSNASCTTNCLAPLAKVIHERFGIVEGLMTTVHSYTATQKTVDGPSRKAWRDGRGAHQNIIPASTGAAKAVTKVIPELKGKLTGMAFRVPTPDVSVVDLTCRLAQPAPYSAIKEAVKAAAKGPMAGILAYTEDEVVSTDFLGDTHSSIFDAKAGIALNDNFVKLISWYDNEYGYSHRVVDLLRYMFSRDAENLYFQ", "soluble on expression in E. coli": "soluble"}, {"sequence": "MGSDKIHHHHHHMLSTGLYEDFPTLKMKINGKRIVYLDSAATTLKPKQVVKKLEEFYYNSYANVHRAVHTLAVRATTEFEETREEFAEFLGASPEEIIFTSGTTMAINLAVVSLLRSGILKEDDLVLVSLLEHHANFVPWLRLSKFHGYRIDFIRPSGRFGTLEMDDLLKHRDKNPKVVAITGLSNVTGQRIPVEELRNVFPNSIILLDGAQLIPHEPVKPKEIGVDFLAFSLHKMLGPTGVGVLYGKREVLEQMEPFLYGGEMIDRVSLEDVTFNELPYKFEAGTPNIADIVASREALRYLKETGFDSVHEKIEQLTQMALKEMMKIGGVEIYGPLDERQHGIVSFNVKGIHPHDVAHILDQEFGIAVRSGHHCAQPLMSILKEQSQIDFPNSTCRASFYIYNTEEDVKILVEGVKKVKEWFSR", "soluble on expression in E. coli": "not soluble"}, {"sequence": "MRYEIADNYYAFWFRFVYPNRKLVERELYKEALELVKRDYNHYMGRVFEKASLDFLWKRFAFERAGRWWSREEEIDVVGVKRGMAYFFEVKWKDLSEREARRSLEHHHHHH", "soluble on expression in E. coli": "not soluble"}, {"sequence": "MNDLTLSPIAIIHTPYKEKFSVPRQPNLVEDGVGIVELLPPYNSPEAVRGLEQFSHLWLIFQMDQIQQGKWQPTVRPPRLGGNQRVGVFASRATHRPNPLGMSKVELRQVECINGNIFLHLGAVDLVDGTPIFDIKPYIAYADSEPNAQSSFAQEKLPVKMTVEFTEQAKSAVKKREEKRPHLSRFIRQVLEQDPRPAYQQGKPSDRIYGMSLYEFNVKWRIKAGTVNCVEVIEIEKDKLEHHHHHH", "soluble on expression in E. coli": "soluble"}, {"sequence": "MATIDSMNKDTTRLSDGPDWTFDLLDVYLAEIDRVAKLYRLDTYPHQIEVITSEQMMDAYSSVGMPINYPHWSFGKKFIETERLYKHGQQGLAYEIVINSNPCIAYLMEENTITMQALVMAHACYGHNSFFKNNYLFRSWTDASSIVDYLIFARKYITECEERYGVDEVERLLDSCHALMNYGVDRYKRPQKISLQEEKARQKSREEYLQSQVNMLWRTLPKREEEKTVAEARRYPSEPQENLLYFMEKNAPLLESWQREILRIVRKVSQYFYPQKQTQVMNEGWATFWHYTILNHLYDEGKVTERFMLEFLHSHTNVVFQPPYNSPWYSGINPYALGFAMFQDIKRICQSPTEEDKYWFPDIAGSDWLETLHFAMRDFKDESFISQFLSPKVMRDFRFFTVLDDDRHNYLEISAIHNEEGYREIRNRLSSQYNLSNLEPNIQIWNVDLRGDRSLTLRYIPHNRAPLDRGRKEVLKHVHRLWGFDVMLEQQNEDGSVELLERCPPRMGNL", "soluble on expression in E. coli": "not soluble"}, {"sequence": "MFRPASIAVTAALCACALPALASETLNSRTDVLAALEAGYDVSVSTDLSRCTPEEGTPVSRTRGGRHIDAYRITEDGNVAFSGAHFTVANDGKPIQQFMRYQLRPDGSVRFTTYMYDLPGLQQRGPVLAYQCAFNEGARFHADLEHHHHHH", "soluble on expression in E. coli": "soluble"}, {"sequence": "MGSDKIHHHHHHMKKYQRLAEQIREQIASGVWQPGDRLPSLREQVASSGMSFMTVGHAYQLLESQGRIIARPQSGYYVAPHPVCRSVATAAHVIRDEAVDINTYIFEMLQASRDTSVVPFASAFPDPRLFPLPQLNRSLAQVSKTATAMSVIENLPPGNAELRYAIARRYAQQGITVSPDEIVITAGALEALNLSLQAVTAPGDWVVVENPCFYGALQALERLRLKALSIPTDVKEGIDLMALEQALQEYPVKACWLMTNSQNPLGFTLSAEKKARLVALLTHHNVTLIEDDVYSELYFGREKPLPAKAWDRDDTVLHCSSFSKCLVPGFRIGWVAGGSHARQIQRLQLMSTLSTSSPMQLALVDYLSTRRYDAHLRRLRRQLAERKQQAWQTLLRHLPAEVKIHHNDSGYFLWLELPEQLDAGELSAKALEHLISIAPGKMFSTSGAWTRFFRFNTAWHWGEREEQAVKQLGSLIREMLSAKSLV", "soluble on expression in E. coli": "not soluble"}, {"sequence": "FESGLDLSDAEPDAGEATAYASKDLEEQLRSVSSVDELMTVLYPEYWKMYKCQLRKGGWQHNREQANLNSRTEETIKFAAAHYNTEILKSIDNEWRKTQCMPREVCIDVGKEFGVATNTFFKPPCVSVYRCGGCCNSEGLQCMNTSTSYLSKTLFEITVPLSQGPKPVTISFANHTSCRCMSKLDVYRQVHSIIRRSLPATLPQCQAANKTCPTNYMWNNHICRCLAQEDFMFSSDAGDDSTDGFHDICGPNKELDEETCQCVCRAGLRPASCGPHKELDRNSCQCVCKNKLFPSQCGANREFDENTCQCVCKRTCPRNQPLNPGKCACECTESPQKCLLKGKKFHHQTCSCYRRPCTNRQKACEPGFSYSEEVCRCVPSYWKRPQMS", "soluble on expression in E. coli": "not soluble"}, {"sequence": "MSLSQAHFSSWRGHQEFLAPHLIEGRAVRAFIGWAGVMIYDPTLDVIALAKEYARQYQCFAETCGRCAPGKFGGKILFDLLEKIDQGRGEESDLERLVEVGKLMMTTSKCEVGKTTPLPILDLLEAYRPLFVEALGNRSRKERSKKERYIAKITAPCIDACPAHVDIPAYIEGVRDHLLGDSLAATRKSMPLAQVCGRVCPHPCESACRRGDLDEPISIMELKRLGADYEKERHGGFIHPYPPKPRRKDKRVAIIGAGPAGLSSAYYLALEGIMSDVFEALPVLGGEVSVGVPEYRMPIDRYYHDIEAIKSLGVSFWTNHFVSAKELDEMRQKYDAIILATGARISKKLGVKGEEESLGGYAPAIPWLDQINLATKFNLAALPDLRGKSVVCVGGGFTSMDVVRCAVRLGAKRIVMLYRRDEATLIQNTSKEEYHEALEEGVEFLFQCAVQEIKSCGGEIKALLVEEYEVVYEEGARKPSLRRIEREPLFLECDLLIPAVSQEVDRSFIPKEWNLESTSWGSFKTNGKDFSTTLRGVFAAGDCEKGPLTIVNAVGQGKRAASVVSRFLEDGEITLTPEEEMEDWLKKEGVYDRSMPVVGWLAGLVRQESHKEEPLKRREDFREVNQGLSMQEAFAESERCMRCYYISMVALEGHHHHHH", "soluble on expression in E. coli": "not soluble"}]}]}
